In article PMC8466245:

Assays:
[1] = target: Glycymeris yessoensis lectin (GYL) (Glycymeris yessoensis); test: MALDI-TOF mass spectrometry; Ultraflex III MALDI-TOF/TOF; singly charged ions of the subunit and of the subunit dimer
[2] = target: Glycymeris yessoensis lectin (GYL) (Glycymeris yessoensis); test: SDS-PAGE without and with DTT; 15% separation gel, in the absence and presence of 10 mM DTT; disulfide-linked (covalent) dimer to subunits

Glycymeris yessoensis lectin (GYL) (natural protein)
stoichiometry N [1]: 2
stoichiometry N [2]: 2
